Laboratory results reported in patent US20200138979A1 (REGENTS OF THE UNIVERSITY OF MICHIGAN, published 2020).
Where no end group is shown, it is not given here.

Assays:
[1] = biological target: FGFR2c (fibroblast growth factor receptor 2, isoform IIIc) stably expressed on QhTERT cells (UniProt P21802); experiment: flow cytometry on cells overexpressing FGFR2 (same experiment as kd=68 nM, printed with more digits)
[2] = biological target: FGFR2c (fibroblast growth factor receptor 2, isoform IIIc) stably expressed on QhTERT cells (UniProt P21802); experiment: flow cytometry time course, 5 µM peptide on QhTERT cells expressing FGFR2c, first order kinetics fit
[3] = biological target: FGFR2c (fibroblast growth factor receptor 2, isoform IIIc) stably expressed on QhTERT cells (UniProt P21802); experiment: flow cytometry time course, 5 µM peptide on QhTERT cells expressing FGFR2c
[4] = biological target: FGFR2c (fibroblast growth factor receptor 2, isoform IIIc) stably expressed on QhTERT cells (UniProt P21802); experiment: flow cytometry, apparent dissociation constant on QhTERT cells expressing FGFR2c, 0-200 nM peptide, 4° C.
[5] = biological target: T1, recombinant FGFR2-ECD (Met1-Glu377), extracellular domain of FGFR2c (UniProt P21802 22-377, glycosylated); experiment: phage display biopanning (4 rounds) against immobilized recombinant FGFR2-ECD; peptide displayed on M13 phage
T1 construct: range 1-377; Bought construct; also called #10824-H08H-50, Sino Biological
T1 sequence (P21802 22-377 limits assumed): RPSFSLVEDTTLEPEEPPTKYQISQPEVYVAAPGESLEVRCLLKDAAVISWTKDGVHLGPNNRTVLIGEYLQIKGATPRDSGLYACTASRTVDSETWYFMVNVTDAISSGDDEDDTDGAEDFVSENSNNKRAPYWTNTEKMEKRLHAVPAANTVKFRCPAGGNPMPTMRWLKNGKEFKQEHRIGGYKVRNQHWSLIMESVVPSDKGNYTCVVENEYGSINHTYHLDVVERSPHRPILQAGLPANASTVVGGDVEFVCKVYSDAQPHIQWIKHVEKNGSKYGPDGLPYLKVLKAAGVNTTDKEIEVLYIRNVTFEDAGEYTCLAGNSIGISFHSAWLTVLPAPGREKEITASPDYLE
Protocol: Peptide selection was performed using a phage display library (New England Biolabs, Ph.D.-12) per manufacturer instructions. This library consists of M13 bacteriophage that expresses ˜10⁹ unique 12-amino acid sequences. 2×10¹¹ pfu consisting of 2×10⁹ unique clones with ˜100 copies each were biopanned against FGFR2-ECD immobilized in a 6-well plate at 4° C. Four rounds of biopanning were performed using a decreasing quantity (100, 80, 60, and 40 μg) of FGFR2-ECD in successive rounds to increase binding specificity. After the 4th round, 50 plaques were randomly selected for DNA preparation and sequence analysis. We used an ABI Automatic DNA Analyzer (Applied Biosystems) with primer 5′-[…] TTA GCG TAA CG-3′ (−96 gIII sequencing primer, New England Biolabs) that corresponds to the pIII gene sequence of the M13 phage.

FGFR2c (fibroblast growth factor receptor 2, isoform IIIc) stably expressed on QhTERT cells, sequence (P21802 22-821): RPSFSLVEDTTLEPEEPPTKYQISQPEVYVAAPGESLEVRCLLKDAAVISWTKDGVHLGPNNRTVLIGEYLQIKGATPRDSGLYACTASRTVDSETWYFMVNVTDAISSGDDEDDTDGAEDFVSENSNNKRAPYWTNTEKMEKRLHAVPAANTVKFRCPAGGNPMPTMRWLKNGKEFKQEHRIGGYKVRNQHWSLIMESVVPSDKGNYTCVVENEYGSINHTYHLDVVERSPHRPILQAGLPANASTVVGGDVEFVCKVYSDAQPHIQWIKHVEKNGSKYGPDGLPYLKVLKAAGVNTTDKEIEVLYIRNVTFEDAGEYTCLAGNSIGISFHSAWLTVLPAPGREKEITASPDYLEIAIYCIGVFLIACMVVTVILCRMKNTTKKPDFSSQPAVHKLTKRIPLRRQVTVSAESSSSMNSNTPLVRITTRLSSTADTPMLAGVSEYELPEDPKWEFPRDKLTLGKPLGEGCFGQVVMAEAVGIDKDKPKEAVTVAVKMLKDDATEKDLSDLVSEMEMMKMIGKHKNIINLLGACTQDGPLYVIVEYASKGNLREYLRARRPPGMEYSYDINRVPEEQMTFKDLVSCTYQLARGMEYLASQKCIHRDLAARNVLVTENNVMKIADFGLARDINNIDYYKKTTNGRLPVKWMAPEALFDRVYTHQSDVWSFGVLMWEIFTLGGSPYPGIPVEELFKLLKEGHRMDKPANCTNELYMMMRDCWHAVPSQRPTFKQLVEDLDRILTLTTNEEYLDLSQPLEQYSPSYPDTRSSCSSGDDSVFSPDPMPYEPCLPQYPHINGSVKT

| Kd [1] | apparent association time constant k [2] | time scale for onset of binding [3] | Kd [4] | binding result [5] | Binder |
| --- | --- | --- | --- | --- | --- |
| 67.9 nM | 0.16 min⁻¹ | 6.2 min | 68 nM |  | SRRPASFRTAREGGGSK(Cy5.5)-NH2 [SRR*-Cy5.5 (peptide … with Cy5.5 attached via a C-terminal GGGSK linker)] |
|  |  |  |  | binds | SRRPASFRTARE (also called unlabeled SRR*; SSR peptide) [SRR* peptide SRRPASFRTARE, unlabeled] |
